Reference: the nanobody polyreactivity screen of Harvey et al. (2022)

assay: yeast display, Sf9 membrane polyspecificity reagent, FACS + sequencing; frameworks hold sequencing errors
Procedure, shortened: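 Polyreactivity labels are assigned by the sorting gate from which each nanobody was recovered. The gates were low and high (top ~1%), set on anti-HA fluorescence for expression and streptavidin fluorescence for reagent binding. Before sorting, galactose-induced (36–48 hours) yeast display cells were stained for 1 hour at 4 °C with 10% biotinylated, detergent-solubilized Sf9 membrane reagent.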

Sequence	polyreactivity (PSR sort gate)
QVQLVESGGGLVQAGGSLRLSCAASGRTFAYNAMGWYRQAPGKERELVASITSGGSTNYSDSVKGRFTISRDNAKNTVYLQMNSLKPEDTAVYYCNKDGKYHRVLYDYCGQGTQVTVSS	low polyreactivity
QVQLVESGGGLVQAGGSLRLSCAASGRTFAYYAMGWYRQAPGKERELVAAIRRSGRTNYADSVKGRFTISRDNAKNTVYLQMNSLKQEDTAVYYCAADYWQGDLRYDYWGQGTQVTVSS	low polyreactivity
QVQLVESGGGLVQAGGSLRLSCAASGRTFAYYAMGWYRQAPGKERELVAAISSSGGITYYADSVKGRFTISRDNAKNTVYLQMNSLKPEDTAVYYCATPRARTRLRYYWGQGTQVTVSS	high polyreactivity
QVQLVESGGGLVQAGGSLRLSCAASGRTFAYYAMGWYRQAPGKERELVAAITLRSGSTYYADSVKGRFTISRDNAKNTVYLQMNSLKPEDTAVYYCATDSLGVDRPNYNYWGQGTQVTVSS	low polyreactivity
QVQLVESGGGLVQAGGSLRLSCAASGRTFAYYAMGWYRQAPGKERELVAAITTSGTRTYYADSVKGRFTISRDTAKNTVYLQMNSLKPEDTAVYSCAARYRYQYEFDYWGQGTQVTVSS	high polyreactivity
QVQLVESGGGLVQAGGSLRLSCAASGRTFAYYAMGWYRQAPGKERELVATISWTTGSTYYADSVKGRFTISRDNAKNTVYLQMNSLKPEDTAVYYCNKRYNNPYWYPGRYPYDYWGQGTQVTVSS	high polyreactivity
QVQLVESGGGLVQAGGSLRLSCAASGRTFCIYAMGWYIQAPGKEREFVAAISSSGGGTYYADSVKGRFTISRDNAKNTVYLQMNSLKPEDTAVYYCAADDGYSSNEYDYWGQGTQVTVSS	low polyreactivity
QVQLVESGGGLVQAGGSLRLSCAASGRTFCLNAMGWYRQAPGKERELVAAISKSDDSTYYADSVKGRFTISRDNAKNTVYLQMNSLKPEDTAVYYCNADYYGWWYDTDYIGGYDYDYWGQGTQVTVSS	low polyreactivity
QVQLVESGGGLVQAGGSLRLSCAASGRTFDGNAMGWYRQAPGKERELVAAISKRGGTTYYADSVKGRFTISRDKAKNTVYLQMTSLKPEDTAVYYCAAPYNTYSYSEGEYWGQGTQVTVST	low polyreactivity
QVQLVESGGGLVQAGGSLRLSCAASGRTFDGNTMGWYRQAPGKERELVAAITKRGGSTYYADSVKGRFTISRDNAKNTVYLQMNSLKPEDTAVYYCNAVWRNWYARVDEYDYWGQGTQVTVSS	high polyreactivity
QVQLVESGGGLVQAGGSLRLSCAASGRTFDGYAMGWSRQAPGKERELVAAINRSGGNTYYADSVKGRFTISRDNAKNTVYLQMNSLNPVDTAVYYCAADGWTSIGVPDYQHDYWGQGTQVTVSS	high polyreactivity
QVQLVESGGGLVQAGGSLRLSCAASGRTFDGYAMGWYRQAPGKERELVASINGGGSTNYADSVKGRFTISRDNAKNTVYLQMNSLKPEDTAVYYCAAESKGTWHYLYTSPHYYWGQGTQVTVSS	low polyreactivity
QVQLVESGGGLVQAGGSLRLSCAASGRTFDGYSMGWYRQAPGKEREFVASINGGGSTNYADSVNGRFTISRDNAKNTVYLQMNSLKPEDTAVYYCAAESKGTWLYLYNSPHYYWGQGTQVTVSS	low polyreactivity
QVQLVESGGGLVQAGGSLRLSCAASGRTFDGYTMGWSRQAPGKERELVAAISRTGSTNYADSVKGRFTISRDNAKNTVYLQMNSLEPEDTAVYYCNAARRYFRYSRKTSAWYYYWGQGTQVTVSS	high polyreactivity
QVQLVESGGGLVQAGGSLRLSCAASGRTFDIYAMGWYRQAPGKERELVAAISSGGSTYYADSVKGRFTISRDNAKNTVYLQINSLKPEDTAVYYCAVRWYDQVSRRGIGYYWGQGSQVTVSS	low polyreactivity
QVQLVESGGGLVQAGGSLRLSCAASGRTFDLYAMGWDRQAPGKERELVAAITKGGGSTYYADSVKGRFTISRDNAKNTVYLQMNSLKPEDSAVYYCAARKYKRIYRISSGIGYYWGHGTQVTVSS	high polyreactivity
